Like-named read-outs stand apart in the source and are kept apart here.

Data on nine molecules can be found in publication PMC5148066.

Test [1] concerns the target Bovine papular stomatitis virus chemokine-binding protein (Bovine papular stomatitis virus). Description: SPR; BPSV-CBP immobilised on a CM5 chip (~500 RU, amine coupling, 10 mM sodium acetate pH 4.5); serial dilutions of mouse chemokines in HBS-EP pH 7.4 flowed in triplicate, 3 min association, 10 min dissociation, 25°C, Biacore X100; global fit, 1:1 binding model. Background: Surface plasmon resonance follows binding to a sensor surface in real time, without labels.

Test [2] concerns the target Bovine papular stomatitis virus chemokine-binding protein (Bovine papular stomatitis virus (strain V660 named for the sequence analysis)). Description: SEC-MALS; purified BPSV-CBP in solution, three concentrations (2, 1, 0.05 mg/ml).
Test [3] concerns the target Bovine papular stomatitis virus chemokine-binding protein (Bovine papular stomatitis virus). Description: SPR; BPSV-CBP immobilised on a CM5 chip (~500 RU, amine coupling, 10 mM sodium acetate pH 4.5); serial dilutions of mouse chemokines in HBS-EP pH 7.4 flowed in triplicate, 3 min association, 10 min dissociation, 25°C, Biacore X100; global fit, 1:1 binding model. The source holds these as a separate data set.

Test [4] has as its target Bovine papular stomatitis virus chemokine-binding protein (Bovine papular stomatitis virus (strain V660 named for the sequence analysis)). Description: SPR; BPSV-CBP immobilised on a CM5 chip (~500 RU) by amine coupling; serial dilutions of mouse chemokines in HBS-EP (20 mM HEPES, 150 mM NaCl, 3.4 mM EDTA, 0.005% Polysorbate 20, pH 7.4) run in triplicate, 3 min association, 10 min dissociation; 25°C, Biacore X100; global fit with a 1:1 binding model.

One may read the Kd as a measure of binding affinity in units of concentration. Low values mean higher affinity, high ones lower affinity. As a reminder, the koff is a measure of how fast the partners let go of each other. As a reminder, the kon is the second-order rate constant of association. A higher kon goes with fast association. Regarding “mouse CCL2 (from UniProt P10148 24-148) (ligand)”, in test [1], the Kd was 0.186 nM, the koff was found to be 0.00022 s⁻¹ and the kon amounted to 1.18e+06 M⁻¹ s⁻¹.
As for “mouse CCL21 (from UniProt P84444 24-133) (ligand)”, in test [1], the dissociation constant Kd came out at 0.385 nM, the koff is 0.00296 s⁻¹ and the kon was determined as 7.68e+06 M⁻¹ s⁻¹.
The term stoichiometry N denotes the number of molecules, sites or subunits per partner or assembly. The molecule “Bovine papular stomatitis virus chemokine-binding protein (natural protein)” returned a stoichiometry N in test [2] of 2.

B1: mouse CXCL4 (ligand)
chain: VTSAGPEESDGDLSCVCVKTISSGIHLKHITSLEVIKAGRHCAVPQLIATLKNGRKICLDRQAPLYKKVIKKILES
In test [3], B1 came in with a Kd of 2.32 nM, a koff of 0.00234 s⁻¹ and a kon of 1.01e+06 M⁻¹ s⁻¹. The Kd in test [4] was found to be 2.3 nM.

B2: mouse XCL1 (ligand)
chain: VGTEVLEESSCVNLQTQRLPVQKIKTYIIWEGAMRAVIFVTKRGLKICADPEAKWVKAAIKTVDGRASTRKNMAETVPTGAQRSTSTAITLTG
In the case of B2, in test [3], the Kd was 1.36 nM, the koff worked out at 0.00135 s⁻¹ and the kon was 990000 M⁻¹ s⁻¹. For the same molecule, in test [4], the Kd was determined as 1.4 nM, the dissociation rate constant (koff) worked out at 0.0014 s⁻¹ and the kon amounted to 1e+06 M⁻¹ s⁻¹.

B3: mouse CCL19 (ligand)
chain: GANDAEDCCLSVTQRPIPGNIVKAFRYLLNEDGCRVPAVVFTTLRGYQLCAPPDQPWVDRIIRRLKKSSAKNKGNSTRRSPVS
Turning to B3, in test [3], the Kd amounted to 0.00146 nM and the kon was found to be 1.37e+07 M⁻¹ s⁻¹. In test [4], this molecule came in with a koff of 2e-05 s⁻¹.

B4: mouse CXCL2 (ligand)
chain: AVVASELRCQCLKTLPRVDFKNIQSLSVTPPGPHCAQTEVIATLKGGQKVCLDPEAPLVQKIIQKILNKGKAN
In test [3], B4 displayed a koff of 0.00056 s⁻¹ and a kon of 770000 M⁻¹ s⁻¹. In test [4], this molecule yielded a Kd of 0.725 nM and a koff of 0.0006 s⁻¹.

B5: mouse CXCL1 (ligand)
chain: APIANELRCQCLQTMAGIHLKNIQSLKVLPSGPHCTQTEVIATLKNGREACLDPEAPLVQKIVQKMLKGVPK
In test [3], B5 returned a Kd of 4.33 nM, a koff of 0.00316 s⁻¹ and a kon of 730000 M⁻¹ s⁻¹. The Kd in test [4] amounted to 4.3 nM.

B6: mouse CCL3 (ligand)
chain: APYGADTPTACCFSYSRKIPRQFIVDYFETSSLCSQPGVIFLTKRNRQICADSKETWVQEYITDLELNA
As for B6, in test [3], the Kd was determined as 0.13 nM, the koff was determined as 0.00023 s⁻¹ and the kon stood at 1.76e+06 M⁻¹ s⁻¹.
